The text below walks through data of PMC8639918 (2021).

As a reminder, the Kd is the free concentration of one partner at which half of the binding sites on the other are occupied at equilibrium, for simple one-to-one binding. The low end stands for a tighter complex, the high end for a looser complex.

This experiment has as its target PHR2^(230–426 L348A/L358A/I362A) (rice, UniProt Q6Z156 230-426, L348A | L358A | I362A). Kind of experiment: ITC; with InsP6. On the technique in general: Isothermal titration calorimetry measures the heat released or taken up as one component is titrated into another.

B1: SPX1^1–259 (C-terminally truncated fragment of rice SPX1) (domain or fragment)
chain: MKFGKSLSSQIVETLPEWRDKFLSYKDLKKRLKLIGGGGGGEERQAKRARVAADGGEEEAAAAAMTPEEAGFMRLLEAELDKFNSFFVEKEEEYIIRQKELQDRVARAAGRESKEELMRVRKEIVDFHGEMVLLENYSALNYTGLVKILKKYDKRTGALIRLPFIQKVLQQPFFTTDLLYKLVKQCEAMLDQLLPSNELSVSSEDGRGDSTNEDKPSNPSSSLVNGGTIPELDEIEYMESMYMKGTVAALRSLKEIRSG
In the case of B1, the Kd worked out at 140 nM.
